B1: library; numbered along this chain (parent)
chain: MAAAGGARLLRAASAVLGGPAGRWLHHAGSRAGSSGLLRNRGPGGSAEASRSLSVSARARSSSEDKITVHFINRDGETLTTKGKVGDSLLDVVVENNLDIDGFGACEGTLACSTCHLIFEDHIYEKLDAITDEENDMLDLAYGLTDRSRLGCQICLTKSMDNMTVRVPETVADARQSIDVGKTS

Variants of: B1
Assay: scaled log2 fold change in cell abundance, elesclomol vs control (0 = silent mean, 1 = nonsense mean) (scaled log2 ratio); higher = higher viability under elesclomol (loss of FDX1 cuproptosis function)
Settings: glucose 10 mM
[1] = with ABC1 FDX1 KO, elesclomol 5 nM, 14 days
[2] = with HEK293T FDX1 KO, elesclomol 40 nM, 11 days
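Note: variant abundance is its share of total variant reads in each endpoint sample, from next-generation sequencing of the integrated ORF PCR-amplified out of genomic DNA.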

Variant | scaled log2 fold change [1] | scaled log2 fold change [2]
L110I | -0.0941 | -0.421
L110F | 0.167 | 0.528
L110H | 0.0622 | 0.156
L110E | 0.704 | 0.547
L110Q | -0.0207 | -0.0815
L110R | -0.0668 | 1.07
L110A | 0.303 | -0.448
L110Y | 0.609 | 0.0828
L110V | 0.108 | -0.578
L110K | 0.374 | -0.159
L110N | 0.111 | -0.0165
L110C | 0.439 | -1.38
L110W | 0.568 | 0.351
L110D | 0.955 | 0.687
L110S | -0.279 | 1.18
L110M | 0.297 | 0.602
L110P | 0.33 | -0.14
L110G | -1.14 | -0.656
L110T | 0.401 | 0.383
S113A | 0.165 | -0.251
S113E | 0.672 | -0.214
S113Y | 0.038 | 0.0184
S113I | 0.189 | -0.397
S113G | 0.021 | 0.00491

Variant | scaled log2 fold change [1] | scaled log2 fold change [2]
S113T | 0.186 | 0.232
S113Q | -0.139 | -0.137
S113W | 0.446 | 0.762
S113N | -0.0206 | 0.213
S113V | 0.242 | -0.434
S113D | 0.394 | 0.644
S113H | 0.269 | -0.884
S113L | 0.0304 | 0.215
S113M | 0.304 | 
S113F | 0.0249 | 0.717
S113K | 0.372 | 0.195
S113P | 1.03 | 1.16
S113C | -0.028 | 0.699
S113R | 0.116 | 0.165
A105D | 0.0439 | 0.0751
A105C | 0.134 | -0.333
A105N | -0.246 | 0.204
A105R | 0.523 | -0.155
A105S | -0.302 | 0.253
A105Q | -0.126 | 0.295
A105F | 0.0682 | 0.146
A105V | -0.318 | 
A105G | -0.0984 | -0.152
A105K | 0.238 | 0.106

Variant | scaled log2 fold change [1] | scaled log2 fold change [2]
A105I | -0.149 | -0.181
A105L | -0.395 | 0.791
A105M | -0.336 | 0.677
A105P | 0.895 | 0.503
A105E | 0.163 | -0.502
A105H | -1.17 | -0.265
A105W | -0.156 | 0.135
A105T | -1.22 | 
A105Y | -0.576 | 0.955
G102Y | 0.333 | -0.0235
F103W | 0.392 | -1.07
F103Y | 0.192 | -0.0547
F103V | 0.282 | -0.441
F103D | 1.07 | 0.779
F103I | 0.186 | 0.171
F103Q | 0.935 | 1.02
F103H | 0.673 | 1.17
F103C | 0.693 | 0.536
F103N | 1.06 | 1.03
F103K | 1.2 | 1.14
F103P | 1.14 | 1.17
F103M | 0.347 | 0.516
F103A | 0.92 | 0.527
F103G | 1.04 | 2.28

Variant | scaled log2 fold change [1] | scaled log2 fold change [2]
F103E | 0.983 | 0.679
F103T | 1.16 | 0.355
F103L | 0.27 | 0.542
F103R | 1.09 | 1.06
F103S | 0.912 | 0.923
C106Y | 1.17 | 1.2
C106V | 1.17 | 1.11
C106I | 1.16 | 1.5
C106F | 1.03 | 1.44
C106R | 1.07 | 1.14
C106N | 1.18 | 0.906
C106L | 1.09 | 1.32
C106D | 1.03 | 1.3
C106W | 1.05 | 1.27
C106Q | 0.973 | 1.99
C106K | 1.09 | 1.38
C106A | 1.03 | 1.51
C106P | 1.07 | 0.899
C106G | 1.07 | 1.6
C106T | 1.19 | 1.27
C106S | 1.19 | 1.14
C106E | 1.06 | 1.3
C106H | 1.11 | 1
C106M | 1.1 | 1.09

Variant | scaled log2 fold change [1] | scaled log2 fold change [2]
C115F | 1 | 1.25
C115A | 1.07 | 1.02
C115E | 1.27 | 0.99
C115D | 1.16 | 0.979
C115H | 0.953 | 1.29
C115G | 1.06 | 1.1
E107K | -0.532 | 0.255
E107T | -0.333 | 0.112
E107D | -0.195 | 0.683
E107Y | 0.333 | -0.16
E107H | -0.0248 | 0.933
E107F | -0.754 | -1.14
E107N | 0.0244 | -0.796
E107G | -0.152 | 0.114
E107P | 0.92 | 0.951
E107C | 0.0589 | 0.444
E107M | -0.428 | -0.835
E107V | 0.145 | 0.849
E107R | -1.12 | 1.26
E107I | 0.227 | 0.0716

From the supplement of paper PMC12855868
